Reference: US20230302148A1, “PHARMACEUTICAL COMPOSITION COMPRISING LONG-ACTING CONJUGATE OF TRIPLE GLUCAGON/GLP-1/GIP RECEPTOR AGONIST” (HANMI PHARM. CO., LTD., priority 2020, published 2023)
Bridges are numbered along the chain shown (N, C = ends). Where no end group is shown, it is not given here. [ ]: non-standard residue; d: D form. The star is where a group is joined. Acetyl(2-(4-imidazolyl)) = O=C(Cc1c[nH]cn1)*; Aib = CC(C)(N)C(=O)O

T1: human GIP receptor (human, UniProt P48546 22-466)
T1 sequence (looked up): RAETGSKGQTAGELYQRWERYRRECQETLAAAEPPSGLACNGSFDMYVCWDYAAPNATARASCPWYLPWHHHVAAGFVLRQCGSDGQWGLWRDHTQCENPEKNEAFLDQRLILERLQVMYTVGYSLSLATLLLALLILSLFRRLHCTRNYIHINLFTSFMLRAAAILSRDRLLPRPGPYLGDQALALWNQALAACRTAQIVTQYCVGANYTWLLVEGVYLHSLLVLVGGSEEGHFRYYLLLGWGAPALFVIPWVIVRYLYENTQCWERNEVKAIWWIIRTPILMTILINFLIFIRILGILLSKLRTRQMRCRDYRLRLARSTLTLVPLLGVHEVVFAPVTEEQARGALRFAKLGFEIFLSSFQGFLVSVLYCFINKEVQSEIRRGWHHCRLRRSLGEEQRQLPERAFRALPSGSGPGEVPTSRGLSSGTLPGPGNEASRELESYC

B1: triple agonist of SEQ ID NO: 96 (peptide)
peptide: Y[Aib]QGTFTSDYSKYLDEKRAKEFVQWLLDHCPSSGQPPPS
modifications: bridge 16-20
B2: triple agonist of SEQ ID NO: 101 (peptide)
peptide: Y[Aib]QGTFTSDYSKALDEKAAKEFVNWLLDQHPSSGQPPPSC
modifications: bridge 16-20
B3: triple agonist of SEQ ID NO: 94 (peptide)
peptide: {Acetyl(2-(4-imidazolyl))}-[Aib]QGTFTSDYSIAMDEIHQKDFVNWLLNTKC
modifications: bridge 15-19
B4: triple agonist of SEQ ID NO: 84 (peptide)
peptide: {Acetyl(2-(4-imidazolyl))}-[Aib]EGTFTSDYSIAMDEIHQKDFVDWLLAEC
modifications: bridge 15-19
B5: triple agonist of SEQ ID NO: 91 (peptide)
peptide: {Acetyl(2-(4-imidazolyl))}-[Aib]EGTFTSDYSIAMDEIHQKDFVDWLLAEKC
modifications: bridge 15-19
B6: triple agonist of SEQ ID NO: 14 (peptide)
peptide: [Acetyl(2-(4-imidazolyl))]GQGTFTSDYSIQLDEIAVRDFVEWLKNGGPSSGAPPPSHG
B7: triple agonist of SEQ ID NO: 16 (peptide)
peptide: [Acetyl(2-(4-imidazolyl))]GQGTFTSDLSKQMDSEAQQLFIEWLKNGGPSSGAPPPSHG
B8: triple agonist of SEQ ID NO: 95 (peptide)
peptide: Y[Aib]QGTFTSDYSKYLDEKRAKEFVQWLLCHHPSSGQPPPS
modifications: bridge 16-20
B9: triple agonist of SEQ ID NO: 90 (peptide)
peptide: {Acetyl(2-(4-imidazolyl))}-[Aib]EGTFTSDYSIAMDEIHQKDFVNWLLAQKC
modifications: bridge 15-19
B10: triple agonist of SEQ ID NO: 83 (peptide)
peptide: {Acetyl(2-(4-imidazolyl))}-[Aib]EGTFTSDYSIAMDEIHQKDFVNWLLAQC
modifications: bridge 15-19
B11: triple agonist of SEQ ID NO: 88 (peptide)
peptide: {Acetyl(2-(4-imidazolyl))}-[Aib]QGTFTSDYSKYLDEKRQKEFVQWLLNTKC
modifications: bridge 15-19
B12: triple agonist of SEQ ID NO: 99 (peptide)
peptide: Y[Aib]QGTFTSDYSKALDEKAAKDFVNWLLDHHPSSGQPPPSC
modifications: lactam 16-20
B13: triple agonist of SEQ ID NO: 85 (peptide)
peptide: {Acetyl(2-(4-imidazolyl))}-[Aib]QGTFTSDYSIAMDEIHQKDFVNWLLAQC
modifications: bridge 15-19
B14: triple agonist of SEQ ID NO: 86 (peptide)
peptide: {Acetyl(2-(4-imidazolyl))}-[Aib]QGTFTSDYSKYLDEKRQKEFVNWLLAQC
modifications: bridge 15-19

biological target: human GLP-1 receptor (human, UniProt P43220 24-463); experiment: cell-based or functional assay

In order of falling “In vitro activity relative to native peptide (%) vs. GLP-1” value:
1. B10  47.3%
2. B1  34.4%
3. B5  31.9%
4. B14  28.4%
5. B6  28%
6. B2  23.2%
7. B12  20.9%
8. B11  9.6%
9. B9  7.4%
10. B13  4.3%
11. B4  4.2%
12. B7  2.1%
13. B8  2.1%
14. B3  0.5%

biological target: human GCG receptor (human, UniProt P47871 26-477); experiment: cell-based or functional assay
Sequence (P47871 26-477): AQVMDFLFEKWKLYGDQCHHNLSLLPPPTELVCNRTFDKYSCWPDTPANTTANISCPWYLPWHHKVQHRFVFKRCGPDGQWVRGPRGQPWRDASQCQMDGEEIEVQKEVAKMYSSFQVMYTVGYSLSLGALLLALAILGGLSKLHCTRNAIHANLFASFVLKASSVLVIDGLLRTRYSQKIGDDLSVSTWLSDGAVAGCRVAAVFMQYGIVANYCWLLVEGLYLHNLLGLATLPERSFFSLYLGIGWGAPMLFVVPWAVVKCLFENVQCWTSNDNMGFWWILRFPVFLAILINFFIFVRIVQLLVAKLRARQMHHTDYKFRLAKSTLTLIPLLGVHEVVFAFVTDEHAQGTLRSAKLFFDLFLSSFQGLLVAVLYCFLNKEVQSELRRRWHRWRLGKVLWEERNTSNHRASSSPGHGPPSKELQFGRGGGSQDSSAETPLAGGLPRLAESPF

First: B1
Second: B2
The “In vitro activity relative to native peptide (%) vs. Glucagon” value of the first is higher: 195% for the first, 13.9% for the second.

B3 and B4 cannot be ordered by “In vitro activity relative to native peptide (%) vs. Glucagon” value: less than 0.1% for the first, less than 0.1% for the second.

Compared with B5, B6 is lower in “In vitro activity relative to native peptide (%) vs. Glucagon” value: 16.8% for the first, less than 0.1% for the second.

First: B7
Second: B8
The “In vitro activity relative to native peptide (%) vs. Glucagon” value of the first is lower: less than 0.1% for the first, 0.4% for the second.

First: B9
Second: B10
The “In vitro activity relative to native peptide (%) vs. Glucagon” value of the first is lower: less than 0.1% for the first, 1.3% for the second.

First: B11
Second: B12
The “In vitro activity relative to native peptide (%) vs. Glucagon” value of the first is lower: 0.3% for the first, 14.9% for the second.

Going from B13 to B14, the “In vitro activity relative to native peptide (%) vs. Glucagon” value rises from less than 0.1% to 0.4%.

biological target: T1, human GIP receptor; experiment: cell-based or functional assay

Going from B1 to B2, the “In vitro activity relative to native peptide (%) vs. GIP” value rises from 5.2% to 40.1%.

B3 and B4 cannot be ordered by “In vitro activity relative to native peptide (%) vs. GIP” value: less than 0.1% for the first, less than 0.1% for the second.

First: B5
Second: B6
The “In vitro activity relative to native peptide (%) vs. GIP” value of the first is higher: 0.3% for the first, less than 0.1% for the second.

B7 and B8 cannot be ordered by “In vitro activity relative to native peptide (%) vs. GIP” value: less than 0.1% for the first, less than 0.1% for the second.

Going from B9 to B10, the “In vitro activity relative to native peptide (%) vs. GIP” value rises from less than 0.1% to 0.4%.

Compared with B11, B12 is higher in “In vitro activity relative to native peptide (%) vs. GIP” value: less than 0.1% for the first, 57.7% for the second.

First: B13
Second: B14
The “In vitro activity relative to native peptide (%) vs. GIP” value of the first is higher: 0.3% for the first, 0.2% for the second.
